Data from the supplement of paper PMC10065799, “High-throughput profiling of sequence recognition by tyrosine kinases and SH2 domains using bacterial peptide display” (eLife, 2023).

The sequences below were run on AncSZ (assay: phosphorylation enrichment, bacterial display (enrichment ratio); higher = better substrate or ligand; peptides without Tyr show the background).
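Note: 11-residue human phosphosite peptides and single-mutation variants displayed on the E. coli surface, counted by deep sequencing, each peptide's frequency after selection divided by its frequency in the unselected input library; frequency after pTyr selection over input frequency; kinase dosed for 20-30% of maximal phosphorylation in three min.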

Point of comparison: KGRGEYSAIKA [PRKCD_Y374_F375S], phosphorylation enrichment 0.553. Against it:
- SVVVPYEQPEV [TP53_Y220_P222Q] — higher, 1.37
- SQAPGYSYTAA [CYCS_Y47_G42S] — higher, 0.637
- ERMKVYVPTGF [EPHX1_Y393] — higher, 0.658
- QQIYTYDSGIH [JUP_Y22_T19I] — higher, 1.02
- YLAATYPTLGQ [NF1_Y2508_V2511L] — higher, 0.779
- HILRVYGGVLP [PCNX4_Y999] — higher, 1.07
- LMFPDYLPCSV [SAG_Y129_T125M] — higher, 2.76
- ISRDVYSTDFF [NTRK2_Y702_M697I_YF] — higher, 0.903
- ITLKGYNLSKS [GNPTAB_Y728] — higher, 0.601
- RRNTCYASIAK [ACADM_Y353_Y352C] — lower, 0.369
- EGQKIYIDDNS [PIP4K2A_Y246_N251S] — higher, 0.862
- HDRNTYEKFLG [TF_Y666_YF] — higher, 1.17
- NPSYNYEIVNR [DYNC1H1_Y3379] — higher, 0.898
- LDPDSYNMFEN [FOXC1_Y159] — higher, 1.38
- FRNKPYISWPS [CDC42BPB_Y1638_S1633Y_YF] — lower, 0.457
- TGQEDYDRLRP [RAC1_Y64_A59T] — higher, 1.34
- RYLYYYSYLLK [PTEN_Y178_V175L] — higher, 1.93
- DPHECYAEVFD [ALB_Y394_K396E] — higher, 1.32
- LSVEIYDRREY [ITGB7_Y753] — higher, 1.52
- SVTCKYSPALN [TP53_Y126_T125K] — higher, 0.638
- ETMNKYHLSGR [MYEF2_Y164_D165H] — lower, 0.539
- PIMSFYAALID [RYR1_Y2426_A2421P] — higher, 1.58
- ELANLYHHVWM [BICD2_Y538_C542W] — higher, 1.32
- LGQRIYQFIQS [DYRK1B_Y271_YF] — higher, 0.916
- GTPVMYTFDEF [COL10A1_Y623_YF] — higher, 1.03
- CGTPEYLAPEI [PRKACA_Y205] — higher, 2.65
- SNTFLYQLVFD [EXO1_Y284_N279S] — higher, 1.56
- QWRTKYETDAI [MYH7_Y1375] — higher, 0.971
- VPDANYTSDEE [STK33_Y439] — higher, 1.54
- SHNELYFEEAE [VANGL1_Y344_YF] — higher, 1.09
- ASENVYVNTAH [CTSC_Y150_I153T] — higher, 0.936
- SGIFQYSIAKF [FOXL2_Y83_I84S_YF] — higher, 0.889

Each sequence was assayed on c-Src in the same assay as above.

Point of comparison: ITLKGYNLSKS [GNPTAB_Y728], phosphorylation enrichment 0.451. Against it:
- SVVVPYEQPEV [TP53_Y220_P222Q] — higher, 0.69
- SQAPGYSYTAA [CYCS_Y47_G42S] — higher, 0.594
- ERMKVYVPTGF [EPHX1_Y393] — higher, 0.563
- QQIYTYDSGIH [JUP_Y22_T19I] — higher, 6.68
- YLAATYPTLGQ [NF1_Y2508_V2511L] — higher, 0.637
- HILRVYGGVLP [PCNX4_Y999] — higher, 0.588
- LMFPDYLPCSV [SAG_Y129_T125M] — higher, 0.772
- ISRDVYSTDFF [NTRK2_Y702_M697I_YF] — higher, 2.84
- RRNTCYASIAK [ACADM_Y353_Y352C] — lower, 0.279
- EGQKIYIDDNS [PIP4K2A_Y246_N251S] — higher, 0.526
- HDRNTYEKFLG [TF_Y666_YF] — higher, 2.82
- NPSYNYEIVNR [DYNC1H1_Y3379] — higher, 0.519
- LDPDSYNMFEN [FOXC1_Y159] — higher, 0.579
- KGRGEYSAIKA [PRKCD_Y374_F375S] — higher, 0.625
- FRNKPYISWPS [CDC42BPB_Y1638_S1633Y_YF] — lower, 0.445
- TGQEDYDRLRP [RAC1_Y64_A59T] — higher, 0.603
- RYLYYYSYLLK [PTEN_Y178_V175L] — higher, 1.76
- DPHECYAEVFD [ALB_Y394_K396E] — higher, 0.775
- LSVEIYDRREY [ITGB7_Y753] — higher, 0.765
- SVTCKYSPALN [TP53_Y126_T125K] — higher, 0.454
- ETMNKYHLSGR [MYEF2_Y164_D165H] — lower, 0.375
- PIMSFYAALID [RYR1_Y2426_A2421P] — higher, 0.487
- ELANLYHHVWM [BICD2_Y538_C542W] — higher, 2.51
- LGQRIYQFIQS [DYRK1B_Y271_YF] — higher, 4.15
- GTPVMYTFDEF [COL10A1_Y623_YF] — higher, 0.668
- CGTPEYLAPEI [PRKACA_Y205] — higher, 0.535
- SNTFLYQLVFD [EXO1_Y284_N279S] — higher, 2.22
- QWRTKYETDAI [MYH7_Y1375] — higher, 0.528
- VPDANYTSDEE [STK33_Y439] — higher, 0.586
- SHNELYFEEAE [VANGL1_Y344_YF] — higher, 0.492
- ASENVYVNTAH [CTSC_Y150_I153T] — higher, 0.814
- SGIFQYSIAKF [FOXL2_Y83_I84S_YF] — higher, 0.5

The sequences below were run on c-Abl (mouse) in the same assay as above.

Point of comparison: HDRNTYEKFLG [TF_Y666_YF], phosphorylation enrichment 0.99. Against it:
- SVVVPYEQPEV [TP53_Y220_P222Q] — higher, 1.03
- SQAPGYSYTAA [CYCS_Y47_G42S] — lower, 0.708
- ERMKVYVPTGF [EPHX1_Y393] — lower, 0.672
- QQIYTYDSGIH [JUP_Y22_T19I] — lower, 0.91
- YLAATYPTLGQ [NF1_Y2508_V2511L] — lower, 0.774
- HILRVYGGVLP [PCNX4_Y999] — lower, 0.874
- LMFPDYLPCSV [SAG_Y129_T125M] — lower, 0.985
- ISRDVYSTDFF [NTRK2_Y702_M697I_YF] — lower, 0.666
- ITLKGYNLSKS [GNPTAB_Y728] — lower, 0.317
- RRNTCYASIAK [ACADM_Y353_Y352C] — lower, 0.333
- EGQKIYIDDNS [PIP4K2A_Y246_N251S] — lower, 0.689
- NPSYNYEIVNR [DYNC1H1_Y3379] — lower, 0.562
- LDPDSYNMFEN [FOXC1_Y159] — lower, 0.74
- KGRGEYSAIKA [PRKCD_Y374_F375S] — lower, 0.761
- FRNKPYISWPS [CDC42BPB_Y1638_S1633Y_YF] — lower, 0.36
- TGQEDYDRLRP [RAC1_Y64_A59T] — lower, 0.778
- RYLYYYSYLLK [PTEN_Y178_V175L] — higher, 2.23
- DPHECYAEVFD [ALB_Y394_K396E] — lower, 0.817
- LSVEIYDRREY [ITGB7_Y753] — lower, 0.801
- SVTCKYSPALN [TP53_Y126_T125K] — lower, 0.458
- ETMNKYHLSGR [MYEF2_Y164_D165H] — lower, 0.398
- PIMSFYAALID [RYR1_Y2426_A2421P] — lower, 0.905
- ELANLYHHVWM [BICD2_Y538_C542W] — lower, 0.918
- LGQRIYQFIQS [DYRK1B_Y271_YF] — higher, 1.3
- GTPVMYTFDEF [COL10A1_Y623_YF] — lower, 0.767
- CGTPEYLAPEI [PRKACA_Y205] — higher, 2.42
- SNTFLYQLVFD [EXO1_Y284_N279S] — lower, 0.784
- QWRTKYETDAI [MYH7_Y1375] — higher, 1.04
- VPDANYTSDEE [STK33_Y439] — higher, 2.42
- SHNELYFEEAE [VANGL1_Y344_YF] — lower, 0.671
- ASENVYVNTAH [CTSC_Y150_I153T] — lower, 0.599
- SGIFQYSIAKF [FOXL2_Y83_I84S_YF] — lower, 0.573

What follows are sequences tested against Hck (UniProt P08631) in the same assay as above.
Hck, sequence (P08631 whole entry, looked up): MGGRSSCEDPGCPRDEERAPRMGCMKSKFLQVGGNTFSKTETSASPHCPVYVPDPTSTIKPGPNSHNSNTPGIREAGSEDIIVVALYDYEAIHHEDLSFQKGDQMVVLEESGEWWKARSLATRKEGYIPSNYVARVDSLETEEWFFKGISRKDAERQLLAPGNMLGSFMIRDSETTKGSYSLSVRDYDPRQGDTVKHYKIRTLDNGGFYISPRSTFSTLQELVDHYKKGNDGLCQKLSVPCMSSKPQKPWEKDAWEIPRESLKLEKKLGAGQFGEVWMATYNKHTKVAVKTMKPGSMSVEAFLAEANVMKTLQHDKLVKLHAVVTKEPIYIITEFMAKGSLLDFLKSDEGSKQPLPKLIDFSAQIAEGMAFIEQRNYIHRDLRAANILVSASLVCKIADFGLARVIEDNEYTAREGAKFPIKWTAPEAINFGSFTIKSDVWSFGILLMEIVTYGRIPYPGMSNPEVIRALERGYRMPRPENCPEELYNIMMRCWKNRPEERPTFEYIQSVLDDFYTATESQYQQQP

Point of comparison: CGTPEYLAPEI [PRKACA_Y205], phosphorylation enrichment 0.633. Against it:
- SVVVPYEQPEV [TP53_Y220_P222Q] — lower, 0.612
- SQAPGYSYTAA [CYCS_Y47_G42S] — lower, 0.422
- ERMKVYVPTGF [EPHX1_Y393] — lower, 0.472
- QQIYTYDSGIH [JUP_Y22_T19I] — higher, 4.94
- YLAATYPTLGQ [NF1_Y2508_V2511L] — the same, 0.633
- HILRVYGGVLP [PCNX4_Y999] — higher, 1.01
- LMFPDYLPCSV [SAG_Y129_T125M] — lower, 0.604
- ISRDVYSTDFF [NTRK2_Y702_M697I_YF] — higher, 1.35
- ITLKGYNLSKS [GNPTAB_Y728] — lower, 0.426
- RRNTCYASIAK [ACADM_Y353_Y352C] — lower, 0.391
- EGQKIYIDDNS [PIP4K2A_Y246_N251S] — lower, 0.465
- HDRNTYEKFLG [TF_Y666_YF] — higher, 1.44
- NPSYNYEIVNR [DYNC1H1_Y3379] — higher, 0.737
- LDPDSYNMFEN [FOXC1_Y159] — lower, 0.465
- KGRGEYSAIKA [PRKCD_Y374_F375S] — higher, 0.811
- FRNKPYISWPS [CDC42BPB_Y1638_S1633Y_YF] — lower, 0.414
- TGQEDYDRLRP [RAC1_Y64_A59T] — higher, 0.836
- RYLYYYSYLLK [PTEN_Y178_V175L] — higher, 1.65
- DPHECYAEVFD [ALB_Y394_K396E] — higher, 0.944
- LSVEIYDRREY [ITGB7_Y753] — higher, 2.23
- SVTCKYSPALN [TP53_Y126_T125K] — lower, 0.431
- ETMNKYHLSGR [MYEF2_Y164_D165H] — lower, 0.467
- PIMSFYAALID [RYR1_Y2426_A2421P] — higher, 0.647
- ELANLYHHVWM [BICD2_Y538_C542W] — higher, 5.11
- LGQRIYQFIQS [DYRK1B_Y271_YF] — higher, 4.98
- GTPVMYTFDEF [COL10A1_Y623_YF] — lower, 0.474
- SNTFLYQLVFD [EXO1_Y284_N279S] — higher, 2.63
- QWRTKYETDAI [MYH7_Y1375] — lower, 0.355
- VPDANYTSDEE [STK33_Y439] — lower, 0.61
- SHNELYFEEAE [VANGL1_Y344_YF] — the same, 0.633
- ASENVYVNTAH [CTSC_Y150_I153T] — higher, 0.796
- SGIFQYSIAKF [FOXL2_Y83_I84S_YF] — lower, 0.569
